The values that follow come from the RNAGym collection of RNA variant scans (doi:10.1073/pnas.2313332121).

To fix the notation:
B1: TPR t1 (parent)
chain: GACCAAUCUGCCCUCAGAGCUCGAGAACAUCUUCGGAUGCAGAGGAGGCAGGCUUCGGUGGCGCGAUAGCGCCAACGUCCUCAACCUCCAAUGCAUCCCACCACAUGAUGAUGCCUGAAGAGCCUUGGUUUUUUG

The variants in this data set derive from B1. The data set can be described thus: polymerase ribozyme fitness, log enrichment relative to wild type (log ratio); higher = more active; in vitro selection for triplet polymerase activity. A digest of the protocol: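 Genotype fitness is the logarithm of its enrichment divided by wild-type enrichment, using inverse-variance-weighted averages of replicates. That logarithm is base 2. Enrichment was measured by Illumina sequencing of input and output libraries from one triplicate in vitro selection round, with frozen incubation at −7 °C, on PCR-built, transcribed mutant libraries of each subunit of a heterodimeric triplet polymerase ribozyme, retaining genotypes with ≥10 input reads and ≥1 read per output.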
Turning to C22U U87A, the “polymerase ribozyme fitness (log ratio)” value is -3.71.

Turning to C40U G48U C82A C88A, the “polymerase ribozyme fitness (log ratio)” value was -3.31.

For the variant C64G C124A, the “polymerase ribozyme fitness (log ratio)” value was -4.25.

In the case of C13A C15G U106A G117C, the “polymerase ribozyme fitness (log ratio)” value is -0.827.

As to G19U A41C U92A C94U C115U U133G, the “polymerase ribozyme fitness (log ratio)” value is -5.87.

On to C12U C53A G58C C82G G128A, for which the “polymerase ribozyme fitness (log ratio)” value is -2.46.

C11G C115G: the “polymerase ribozyme fitness (log ratio)” value was -1.35.

For the variant C72A C86G C89U, the “polymerase ribozyme fitness (log ratio)” value is -1.07.

With C15G A24G C89G C124G, the “polymerase ribozyme fitness (log ratio)” value was -6.51.

G60A A91C: the “polymerase ribozyme fitness (log ratio)” value is -1.35.

In the case of C4G A90G C104U, the “polymerase ribozyme fitness (log ratio)” value was -0.701.

With A41G G61U U96A A105U U133C, the “polymerase ribozyme fitness (log ratio)” value was -6.14.

In the case of C12A C15U G52U G63A C86U G117C, the “polymerase ribozyme fitness (log ratio)” value was -5.35.

A105G G120U: the “polymerase ribozyme fitness (log ratio)” value is -2.44.

For the variant C70U U78A A95U U112G U133A, the “polymerase ribozyme fitness (log ratio)” value is -0.788.

With C72G C82G A105C, the “polymerase ribozyme fitness (log ratio)” value was -4.16.

Consider U54C U81C A95C, for which the “polymerase ribozyme fitness (log ratio)” value is -0.789.

As to U9A G10C C73U C102G C114G C115G, the “polymerase ribozyme fitness (log ratio)” value was -6.5.

C13G C28U: the “polymerase ribozyme fitness (log ratio)” value is -3.35.

Take A27U U96C C124G: the “polymerase ribozyme fitness (log ratio)” value was -1.73.

Consider U78A A100C, for which the “polymerase ribozyme fitness (log ratio)” value was -1.08.

Turning to A37C G60A C102A, the “polymerase ribozyme fitness (log ratio)” value is -3.1.

U81G U125A U131G: the “polymerase ribozyme fitness (log ratio)” value was -4.64.

On to C12U C20A A74U G128A, for which the “polymerase ribozyme fitness (log ratio)” value was -5.15.

In the case of G17C C72U, the “polymerase ribozyme fitness (log ratio)” value was -4.11.

In the case of C56G A103U U109G, the “polymerase ribozyme fitness (log ratio)” value is -6.5.

Turning to C12G C79A, the “polymerase ribozyme fitness (log ratio)” value is -1.01.

Regarding A26G G45A G120C, the “polymerase ribozyme fitness (log ratio)” value is -1.66.

On to A29U C53A U54C C76U C85A U131C, for which the “polymerase ribozyme fitness (log ratio)” value is -3.17.

Regarding U116A G120U, the “polymerase ribozyme fitness (log ratio)” value is -1.5.

As to C73U C86A C97U C102U, the “polymerase ribozyme fitness (log ratio)” value was -4.11.

For C70G A119G, the “polymerase ribozyme fitness (log ratio)” value was -1.37.

For U116C U129G U132C, the “polymerase ribozyme fitness (log ratio)” value was -3.87.

Take G23A G61U: the “polymerase ribozyme fitness (log ratio)” value is -4.38.

For C12A G45U G51C G52U U59C C123G, the “polymerase ribozyme fitness (log ratio)” value is -5.71.

Consider A16U G135U, for which the “polymerase ribozyme fitness (log ratio)” value was -1.8.

In the case of C22U A24U G57U C82U C115A, the “polymerase ribozyme fitness (log ratio)” value was -6.34.

On to G42U G44A C56U G61C A68U C85U G110U U116C, for which the “polymerase ribozyme fitness (log ratio)” value was -6.46.

With U9A C31U A111C G135U, the “polymerase ribozyme fitness (log ratio)” value is -4.56.

As to U9G C40A G69A C76U C114A, the “polymerase ribozyme fitness (log ratio)” value was -6.98.

For C13A C76G C97U C102A C104U, the “polymerase ribozyme fitness (log ratio)” value was -3.66.

Take C13U C49U U55G U92A: the “polymerase ribozyme fitness (log ratio)” value is -4.11.

Regarding A6C A18U, the “polymerase ribozyme fitness (log ratio)” value was -2.13.

Consider C15U C72U, for which the “polymerase ribozyme fitness (log ratio)” value is -1.62.

Regarding A37C G69A, the “polymerase ribozyme fitness (log ratio)” value is -3.26.

Regarding U78G C97G, the “polymerase ribozyme fitness (log ratio)” value is -4.29.

For the variant G61U C102G G120C, the “polymerase ribozyme fitness (log ratio)” value is -6.46.

Regarding G10U G35U A66U G69U G93A, the “polymerase ribozyme fitness (log ratio)” value is -5.9.

Take C56U U92A: the “polymerase ribozyme fitness (log ratio)” value is -2.86.

With C85G G113C C114A U132C, the “polymerase ribozyme fitness (log ratio)” value is -6.29.

Turning to C11G C13A G117C U132A U134G, the “polymerase ribozyme fitness (log ratio)” value is -2.05.

As for C8G G69C G113A, the “polymerase ribozyme fitness (log ratio)” value is -1.36.

Consider A5U C13A C28U C49U C56U G120C G135U, for which the “polymerase ribozyme fitness (log ratio)” value was -5.49.

Consider G52C G127U, for which the “polymerase ribozyme fitness (log ratio)” value was -1.33.

Consider C28A C70G C79G U130C, for which the “polymerase ribozyme fitness (log ratio)” value was -6.51.

On to A27U G48U A50U C123U, for which the “polymerase ribozyme fitness (log ratio)” value was -2.86.

For the variant G48C C79U G128C, the “polymerase ribozyme fitness (log ratio)” value was -4.29.

On to A74U C89U, for which the “polymerase ribozyme fitness (log ratio)” value was -0.535.

As to C49A G69U, the “polymerase ribozyme fitness (log ratio)” value worked out at 0.034.

For C13U A50U C88G U112A G117A, the “polymerase ribozyme fitness (log ratio)” value is -2.57.

With A111G G120A G122A, the “polymerase ribozyme fitness (log ratio)” value is -2.07.

For the variant G35A G48U, the “polymerase ribozyme fitness (log ratio)” value was -3.78.

Consider A2C C8A G42C U54A U78A C98U G120A G127C, for which the “polymerase ribozyme fitness (log ratio)” value is -2.04.

On to A90G U126A, for which the “polymerase ribozyme fitness (log ratio)” value is -1.39.

For G42C U55A G63U C101U, the “polymerase ribozyme fitness (log ratio)” value was -3.41.

Take G69C G122U C124U: the “polymerase ribozyme fitness (log ratio)” value was -0.632.

G36U G69A: the “polymerase ribozyme fitness (log ratio)” value is -4.06.

With C11U C94U, the “polymerase ribozyme fitness (log ratio)” value is -1.24.

For G52C G93A G113A A119G, the “polymerase ribozyme fitness (log ratio)” value was -1.29.

As for G63U G117U U129G, the “polymerase ribozyme fitness (log ratio)” value is -6.2.

For the variant C49U U106A U116G G128A, the “polymerase ribozyme fitness (log ratio)” value was -5.82.

Regarding U112A A118U G135A, the “polymerase ribozyme fitness (log ratio)” value came to 1.33.

For A27U A121C, the “polymerase ribozyme fitness (log ratio)” value was -0.527.

As to C20U A43G C53A G110U G120U, the “polymerase ribozyme fitness (log ratio)” value is -6.4.

As to A29U C62U C89G, the “polymerase ribozyme fitness (log ratio)” value was -3.

C8U G61A C70U U87G C89G: the “polymerase ribozyme fitness (log ratio)” value is -5.05.

G71U C101G: the “polymerase ribozyme fitness (log ratio)” value was -1.83.

C56U U87A: the “polymerase ribozyme fitness (log ratio)” value was -0.176.

Regarding C64G C114A, the “polymerase ribozyme fitness (log ratio)” value was -6.24.

For C31U U59G C73U, the “polymerase ribozyme fitness (log ratio)” value is -5.82.

C11G G42U G45U G51C G120A U134G: the “polymerase ribozyme fitness (log ratio)” value is -4.64.

Take C13U C64U A74U C82G: the “polymerase ribozyme fitness (log ratio)” value is -1.47.

For the variant C20G G63U C82G G113C G128U, the “polymerase ribozyme fitness (log ratio)” value is -4.75.
